Columns and labels:
HeLa Kyoto [1] = experiment: solubility in G1/S (NP-40 vs SDS abundance) (log2 ratio); higher = more soluble; conditions: cell cycle stage: G1/S
HeLa Kyoto [2] = experiment: melting temperature (median over replicates), in situ; higher = more thermally stable
HeLa Kyoto [3] = experiment: solubility change mitosis vs G1/S (difference of NP-40 vs SDS log2 ratios) (log2 ratio difference); higher = more soluble in mitosis
HeLa Kyoto [4] = experiment: thermal stability score vs G1/S (z-score of summed log2 fold changes over temperatures); higher = more thermally stable than in G1/S
[5] = cell cycle stage: early G1 (4.5 h after nocodazole release)
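Throughout, for melting temperature (median over replicates), in situ: HeLa Kyoto cells synchronized by double thymidine or nocodazole block, proteins quantified by TMT10plex mass spectrometry, three independent biological replicates.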
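Throughout, for solubility change mitosis vs G1/S (difference of NP-40 vs SDS log2 ratios): synchronized HeLa Kyoto cells (double thymidine block for G1/S, nocodazole release for mitosis), protein amounts in NP-40 versus SDS lysates quantified by mass spectrometry, three biological replicates.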
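Throughout, for solubility in G1/S (NP-40 vs SDS abundance): HeLa Kyoto cells arrested at G1/S by double thymidine block, proteins quantified by TMT10plex mass spectrometry in mild NP-40 versus SDS extracts, three biological replicates.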
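Throughout, for thermal stability score vs G1/S (z-score of summed log2 fold changes over temperatures): synchronized HeLa Kyoto cells, proteins quantified by TMT10plex mass spectrometry, three biological replicates, mitosis taken 0.5 h after nocodazole release, G1/S directly after double thymidine block.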

Chain of CDK13 (chain, as listed by the source): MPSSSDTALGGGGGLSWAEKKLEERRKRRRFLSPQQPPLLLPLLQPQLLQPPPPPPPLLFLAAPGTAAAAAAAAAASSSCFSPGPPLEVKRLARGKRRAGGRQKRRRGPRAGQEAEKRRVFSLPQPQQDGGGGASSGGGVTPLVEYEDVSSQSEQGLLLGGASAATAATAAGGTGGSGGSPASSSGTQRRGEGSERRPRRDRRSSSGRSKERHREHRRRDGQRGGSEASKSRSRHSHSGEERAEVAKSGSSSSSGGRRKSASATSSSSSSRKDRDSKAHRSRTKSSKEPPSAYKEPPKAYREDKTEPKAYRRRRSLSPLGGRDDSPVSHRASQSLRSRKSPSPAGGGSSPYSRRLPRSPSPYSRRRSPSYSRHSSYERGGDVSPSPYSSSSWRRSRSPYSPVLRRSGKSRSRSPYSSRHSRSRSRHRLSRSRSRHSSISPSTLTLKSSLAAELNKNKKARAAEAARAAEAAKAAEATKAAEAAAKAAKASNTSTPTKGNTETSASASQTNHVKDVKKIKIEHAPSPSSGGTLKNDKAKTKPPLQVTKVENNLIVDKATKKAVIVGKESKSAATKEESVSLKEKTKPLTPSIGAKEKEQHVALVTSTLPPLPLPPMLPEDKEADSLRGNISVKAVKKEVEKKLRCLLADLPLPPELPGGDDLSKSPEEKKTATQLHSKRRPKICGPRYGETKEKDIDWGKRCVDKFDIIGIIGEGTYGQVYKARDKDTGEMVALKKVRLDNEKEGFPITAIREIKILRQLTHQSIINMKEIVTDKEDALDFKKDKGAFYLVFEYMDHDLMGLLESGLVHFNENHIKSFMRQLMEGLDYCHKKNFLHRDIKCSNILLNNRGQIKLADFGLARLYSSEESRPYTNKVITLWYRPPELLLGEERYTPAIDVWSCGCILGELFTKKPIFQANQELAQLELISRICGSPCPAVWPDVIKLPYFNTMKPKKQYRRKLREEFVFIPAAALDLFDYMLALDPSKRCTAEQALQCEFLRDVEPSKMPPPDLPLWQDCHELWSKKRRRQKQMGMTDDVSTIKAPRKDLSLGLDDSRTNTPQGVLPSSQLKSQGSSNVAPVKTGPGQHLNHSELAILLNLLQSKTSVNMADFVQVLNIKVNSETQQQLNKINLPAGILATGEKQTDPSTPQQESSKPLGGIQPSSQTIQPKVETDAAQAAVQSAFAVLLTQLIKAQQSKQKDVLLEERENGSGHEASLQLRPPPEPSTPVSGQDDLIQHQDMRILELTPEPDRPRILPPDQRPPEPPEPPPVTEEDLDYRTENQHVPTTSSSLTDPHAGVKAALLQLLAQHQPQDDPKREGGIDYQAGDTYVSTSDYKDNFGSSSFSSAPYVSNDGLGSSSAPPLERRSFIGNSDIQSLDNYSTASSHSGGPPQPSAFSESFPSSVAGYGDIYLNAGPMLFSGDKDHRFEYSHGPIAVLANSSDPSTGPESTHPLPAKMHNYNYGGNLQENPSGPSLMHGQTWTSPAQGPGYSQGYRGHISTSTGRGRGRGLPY

Substance | solubility in G1/S (log2) (HeLa Kyoto [1]) | melting temperature (HeLa Kyoto [2]; cell cycle stage: G1/S) | melting temperature (HeLa Kyoto [2]; cell cycle stage: mitosis) | solubility change mitosis (log2) (HeLa Kyoto [3]) | thermal stability score (HeLa Kyoto [4]; [5]) | thermal stability score (HeLa Kyoto [4]; cell cycle stage: mitosis)
MCNTPTYCDLGKAAKDVFNKGYGFGMVKIDLKTKSCSGVEFSTSGHAYTDTGKASGNLETKYKVCNYGLTFTQKWNTDNTLGTEISWENKLAEGLKLTLDTIFVPNTGKKSGKLKASYKRDCFSVGSNVDIDFSGPTIYGWAVLAFEGWLAGYQMSFDTAKSKLSQNNFALGYKAADFQLHTHVNDGTEFGGSIYQKVNEKIETSINLAWTAGSNNTRFGIAAKYMLDCRTSLSAKVNNASLIGLGYTQTLRPGVKLTLSALIDGKNFSAGGHKVGLGFELEA [VDAC3] | -0.0264 | 61.6 °C | 59.9 °C | -0.0561 | -1.43 | -4.76
CDK13 | -0.604 | 50.9 °C | 52.5 °C | 0.194 | -0.541 | 0.202
MAAEDELQLPRLPELFETGRQLLDEVEVATEPAGSRIVQEKVFKGLDLLEKAAEMLSQLDLFSRNEDLEEIASTDLKYLLVPAFQGALTMKQVNPSKRLDHLQRAREHFINYLTQCHCYHVAEFELPKTMNNSAENHTANSSMAYPSLVAMASQRQAKIQRYKQKKELEHRLSAMKSAVESGQADDERVREYYLLHLQRWIDISLEEIESIDQEIKILRERDSSREASTSNSSRQERPPVKPFILTRNMAQAKVFGAGYPSLPTMTVSDWYEQHRKYGALPDQGIAKAAPEEFRKAAQQQEEQEEKEEEDDEQTLHRAREWDDWKDTHPRGYGNRQNMG [IGBP1] | 0.454 | 50.7 °C | 51.4 °C | 0.103 | -0.476 | -0.0586
MAERRRHKKRIQEVGEPSKEEKAVAKYLRFNCPTKSTNMMGHRVDYFIASKAVDCLLDSKWAKAKKGEEALFTTRESVVDYCNRLLKKQFFHRALKVMKMKYDKDIKKEKDKGKAESGKEEDKKSKKENIKDEKTKKEKEKKKDGEKEESKKEETPGTPKKKETKKKFKLEPHDDQVFLDGNEVYVWIYDPVHFKTFVMGLILVIAVIAATLFPLWPAEMRVGVYYLSVGAGCFVASILLLAVARCILFLIIWLITGGRHHFWFLPNLTADVGFIDSFRPLYTHEYKGPKADLKKDEKSETKKQQKSDSEEKSDSEKKEDEEGKVGPGNHGTEGSGGERHSDTDSDRREDDRSQHSSGNGNDFEMITKEELEQQTDGDCEEDEEEENDGETPKSSHEKS [SEC62] | -0.134 | 55.5 °C | 55.4 °C | 0.0142 | -4.12 | -4.37
MPGKLRSDAGLESDTAMKKGETLRKQTEEKEKKEKPKSDKTEEIAEEEETVFPKAKQVKKKAEPSEVDMNSPKSKKAKKKEEPSQNDISPKTKSLRKKKEPIEKKVVSSKTKKVTKNEEPSEEEIDAPKPKKMKKEKEMNGETREKSPKLKNGFPHPEPDCNPSEAASEESNSEIEQEIPVEQKEGAFSNFPISEETIKLLKGRGVTFLFPIQAKTFHHVYSGKDLIAQARTGTGKTFSFAIPLIEKLHGELQDRKRGRAPQVLVLAPTRELANQVSKDFSDITKKLSVACFYGGTPYGGQFERMRNGIDILVGTPGRIKDHIQNGKLDLTKLKHVVLDEVDQMLDMGFADQVEEILSVAYKKDSEDNPQTLLFSATCPHWVFNVAKKYMKSTYEQVDLIGKKTQKTAITVEHLAIKCHWTQRAAVIGDVIRVYSGHQGRTIIFCETKKEAQELSQNSAIKQDAQSLHGDIPQKQREITLKGFRNGSFGVLVATNVAARGLDIPEVDLVIQSSPPKDVESYIHRSGRTGRAGRTGVCICFYQHKEEYQLVQVEQKAGIKFKRIGVPSATEIIKASSKDAIRLLDSVPPTAISHFKQSAEKLIEEKGAVEALAAALAHISGATSVDQRSLINSNVGFVTMILQCSIEMPNISYAWKELKEQLGEEIDSKVKGMVFLKGKLGVCFDVPTASVTEIQEKWHDSRRWQLSVATEQPELEGPREGYGGFRGQREGSRGFRGQRDGNRRFRGQREGSRGPRGQRSGGGNKSNRSQNKGQKRSFSKAFGQ [DDX21] | -1.67 | 49.3 °C | 50.8 °C | 0.826 | 5.09 | 6.63
MFRAAAPGQLRRAASLLRFQSTLVIAEHANDSLAPITLNTITAATRLGGEVSCLVAGTKCDKVAQDLCKVAGIAKVLVAQHDVYKGLLPEELTPLILATQKQFNYTHICAGASAFGKNLLPRVAAKLEVAPISDIIAIKSPDTFVRTIYAGNALCTVKCDEKVKVFSVRGTSFDAAATSGGSASSEKASSTSPVEISEWLDQKLTKSDRPELTGAKVVVSGGRGLKSGENFKLLYDLADQLHAAVGASRAAVDAGFVPNDMQVGQTGKIVAPELYIAVGISGAIQHLAGMKDSKTIVAINKDPEAPIFQVADYGIVADLFKVVPEMTEILKKK [ETFA] | 0.455 | 54.1 °C | 53.6 °C | -0.02 | -3.45 | -1.76
MSKRLRSSEVCADCSGPDPSWASVNRGTFLCDECCSVHRSLGRHISQVRHLKHTPWPPTLLQMVETLYNNGANSIWEHSLLDPASIMSGRRKANPQDKVHPNKAEFIRAKYQMLAFVHRLPCRDDDSVTAKDLSKQLHSSVRTGNLETCLRLLSLGAQANFFHPEKGNTPLHVASKAGQILQAELLAVYGADPGTQDSSGKTPVDYARQGGHHELAERLVEIQYELTDRLAFYLCGRKPDHKNGQHFIIPQMADSSLDLSELAKAAKKKLQSLSNHLFEELAMDVYDEVDRRETDAVWLATQNHSALVTETTVVPFLPVNPEYSSTRNQGRQKLARFNAHEFATLVIDILSDAKRRQQGSSLSGSKDNVELILKTINNQHSVESQDNDQPDYDSVASDEDTDLETTASKTNRQKSLDSDLSDGPVTVQEFMEVKNALVASEAKIQQLMKVNNNLSDELRIMQKKLQTLQSENSNLRKQATTNVYQVQTGSEYTDTSNHSSLKRRPSARGSRPMSMYETGSGQKPYLPMGEASRPEESRMRLQPFPAHIGRSALVTSSSSLPSFPSTLSWSRDESARRASRLEKQNSTPESDYDNTPNDMEPDGMGSSRKGRQRSMVWPGDGLVPDTAEPHVAPSPTLPSTEDVIRKTEQITKNIQELLRAAQENKHDSYIPCSERIHVAVTEMAALFPKKPKSDMVRTSLRLLTSSAYRLQSECKKTLPGDPGSPTDVQLVTQQVIQCAYDIAKAAKQLVTITTKENNN [GIT2] | 0.317 | 48 °C | 48.9 °C | -0.13 | 1.06 | 2.68
